B1: 7G6 (antibody, V domains shown)
VH: QVQLVESGGGVVQPGRSLRLSCAASGIAFNDYTMHWVRRSPDKGLEWVAAISYGGTNKYYADSVKGRFTISRDSSKNTLFLQMDSLRVEDTAVYYCARDSGYRSLLHWGQGTLVTVSS
VL: EIVLTQSPLSLPVTPGEPASISCRSSQSLVHRNGYNYLDWYLQKPGQSPQLLIYMASKRASGVPDRFSGSGSGTEFTLKISRVEAEDVGIYYCMQALQTWTFGQGTKVEVN
notes: Fully human monoclonal antibody, wild-type variable regions; tested as IgG; also called MY006-7G6
B2: 17H9 (antibody, V domains shown)
VH: QVQLEEYGGGVVQPGRSLRLSCVASGSTLGTYGMHWVRQAPGKGLEWVAIISPDGGHQDYADPVRGRFTVSRDNSKNTLYLQMDNLRVEDTAVYYCATTLCARTDCTWVRSDSWGQGTLVTVSS
VL: ANVLTQSPGTLSLSPGERATLSCRASQRVSGDYLAWYQQKRGQAPRLLIYGASSRATGIPDRFSGSGSGTDFTLTISRLEPEDFAVYYCQHYNGPPVTFGQGTKLEIK
notes: Fully human monoclonal antibody, wild-type variable regions; tested as IgG (detected with anti-human IgG); also called MY006-17H9
B3: 2F8 (antibody, V domains shown)
VH: EVQLVESGGGLVKPGGSLRLSCAASGFIFSDYNMNWVRQAPGKGLEWVSSITRSSRTIYYADSVKGRFTISRDNAKNSLHLQMNSLRDADTAVYYCAREDFDVSTGPYYMDVWGNGTTVIVSS
VL: EIVLTQSPGTLSLSPGERATLSCRASQSVSNMFLVWYQQKPGQAPRLLMYGASTRATDIPDRFSGSGSGTDFTLTISRLEPEDFAVYYCQQNGNSPYTFGQGTKLEIK
notes: Fully human monoclonal antibody, wild-type variable regions; tested as IgG; also called MY006-2F8
B4: 15E3 (antibody, V domains shown)
VH: EVQLVESGGALVQPGGSLRLSCAASGFKFSTFYMTWIRQAPGKGLEWVANIKQDGSEKDYLDSVRGRFNISRDNAKSVLYLQMNTLSADDTGVYYCTRNGLQDSYSGDFFDHWGQGILVTVSS
VL: QSVLTQPPSISAAPGQKVTISCSGTGSNIGHNYVSWYQQLPRTAPRLLIFDNTKRPSGIPDRFSGSKSGSSATLGITGLQTGDEAHYFCATWDADLSAVLFGGGTKLTVL
notes: Fully human monoclonal antibody, wild-type variable regions; also called MY006-15E3; 15E3-human IgG1

What was measured:
[1] = molecular target: T1, Ara h 2 (Arachis hypogaea allergen 2) (Arachis hypogaea, UniProt Q6PSU2 22-172); assay: ELISA, antibody titrated on coated Ara h 2
T1 construct: Peanut allergen; also called nAra h 2; natural Ara h 2
T1 sequence: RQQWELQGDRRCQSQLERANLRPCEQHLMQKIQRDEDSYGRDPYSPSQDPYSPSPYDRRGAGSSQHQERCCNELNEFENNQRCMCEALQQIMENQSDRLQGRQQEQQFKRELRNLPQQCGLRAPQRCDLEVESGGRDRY
Method: (§1) Monoclonal antibodies 2F8, 7G6, 17H9 and 15E3 were tested for their specificity against the major peanut allergens Ara h 1, 2, 3, and 6 by ELISA (enzyme linked immunosorbent assay). Briefly, ELISA plates were coated with respective Ara h proteins (Arah1: 0.5 ug/ml, Arah2: 0.01 ug/ml, Arah3: 0.1 ug/ml, Arah6: 0.05 ug/ml) overnight at 4° C. Afterwards, plates were blocked with BSA (2% in PBS) for 1 hour at room temperature. Antibody titration series starting from 3 ug/ml was prepared, added to the single ELISA plate wells and incubated for 2 h at room temperature. The read-out was performed by adding anti-hu-IgG-HRP (anti-human-IgG horseradish peroxidase; Jackson ImmunoResearch, West Grove, PA, USA) for 1 h at room temperature. Tetramethylbenzidine substrate solution (TMB, Sigma-Aldrich Chemie GmbH, Buchs, Switzerland) was added, then after 5 minutes of hydrolysis time, the reaction was stopped by the addition of 1 M H₂SO₄ and the absorbances were read at 450 nm.

[2] = molecular target: T2, Ara h 6 (Arachis hypogaea allergen 6) (Arachis hypogaea, UniProt Q647G9 22-145); assay: ELISA, antibody titrated on coated Ara h 6
T2 construct: Peanut allergen; also called Ara h 6.0101; nAra h 6
T2 sequence: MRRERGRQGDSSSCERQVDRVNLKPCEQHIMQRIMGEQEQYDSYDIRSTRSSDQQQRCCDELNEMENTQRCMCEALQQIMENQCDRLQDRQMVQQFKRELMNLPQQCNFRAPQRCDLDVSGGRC
Method: as §1

[3] = molecular target: T3, Ara h 3 (Arachis hypogaea allergen 3) (Arachis hypogaea); assay: ELISA, antibody titrated on coated Ara h 3
T3 construct: Peanut allergen; also called Ara h 3.0101; nAra h 3
T3 chain: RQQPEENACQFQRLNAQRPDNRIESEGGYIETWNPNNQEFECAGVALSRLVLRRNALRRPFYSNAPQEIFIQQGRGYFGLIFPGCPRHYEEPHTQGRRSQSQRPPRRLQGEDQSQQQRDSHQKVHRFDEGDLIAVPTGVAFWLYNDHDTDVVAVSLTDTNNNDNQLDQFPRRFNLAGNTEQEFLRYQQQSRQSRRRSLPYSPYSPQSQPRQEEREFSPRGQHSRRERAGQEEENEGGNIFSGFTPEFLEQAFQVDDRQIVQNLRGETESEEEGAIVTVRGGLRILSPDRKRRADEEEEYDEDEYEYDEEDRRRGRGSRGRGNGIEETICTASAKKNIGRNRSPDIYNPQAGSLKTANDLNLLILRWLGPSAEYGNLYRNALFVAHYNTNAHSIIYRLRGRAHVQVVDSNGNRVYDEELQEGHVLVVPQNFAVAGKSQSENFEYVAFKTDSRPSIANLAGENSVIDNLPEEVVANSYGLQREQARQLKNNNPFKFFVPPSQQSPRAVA
Method: as §1

Binder | EC50 [1] [ng/mL] | EC50 [2] [ng/mL] | EC50 [3] [ng/mL]
B1 | 0.629 | 1 | 
B2 | 2.2 |  | 7.38
B3 | 3.31 | 2.46 | 
B4 | 3.78 | 1.74 | 
